Assay: protease stability score; higher = more stable; yeast display proteolysis, trypsin and chymotrypsin;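 note: log10 excess protease needed over predicted unfolded state with 0 meaning unfolded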

Row | Sequence | protease stability score
1 | DEEDLTRLHKLWRNNNWKELVNQMDPNARVTVGDEVIQGRENVTHWADRVEHQIDHYEIKDFRRQGNKILVLFRAEVNGQRFEAIVAVLMVNGDVHHLEVRFRDERDEKKFKEHVS | 1.48
2 | DEEDMDEVEKAIRKNDPEKMRDLADENAKASVGDNQFHGRDNVENFMKHLTDHADHVQVDSVEKHNGRVVVNAQLDINGEQIQIVIRIDVHNGKIKRFSIEVRDEEAHHFMREMVS | 0.895
3 | DEEDMKKVVKQLLEAAQNGNTEKIVQLVKKDVEFKLGDTEYRGQEDVRKVVKKLRDIGAEFHVKEYEATGGEAKVKTVWHIGDNEAHVEVKYTVEDDKVDRVEVRWSEKAQKQIKKG | 0.801
4 | DEEDMKRVQDLIKAFQEGDPDKVVEQIDPNARIEVGDQHVSGRQHIRETIHNRVEEAEIHYESITLRVRGNTVEVRMVFVENKNGRPKRVHVKIEVQMHNGKVKEIREQEVS | 0.969
5 | DEEDMNTLQKMNEKNDEEKLQKLADEDARFVVGDKTLTGHHEFQTFVHRFVKHVDHLQVDSVEVQGNQVDLDVRAEINGRHYRFQIVIIIQNGRLKEYRLQATDEDEEEKFKKMIE | 1.25
6 | DEEDMQRFFKEFLKAQETGDPDEIRRQMDPNARAHVGDKEYHGREQVAKMFRDVRERVDRIRIESVDIQGNKANVDVTYNVNGRKARINVTLKAHNGRFKEMHFNPEDTKEMEK | 0.033
7 | DEEDNETALRTMMELIVEGNTNQAHRLFDENATVKIGDTTFHGREQIAQAIRHLHEQADHMEVKDFRLTGDKARANVQLHHNGKTIEVDVVFRVSNGRVKHMFIDPQQVRHLRG | 1.05
8 | DEEDNKTAKKLAKTGDPDEFAEQADEDVHIVVGDFEVHGRDELRKLMKRLKDHIDHKEIKRLRVHNGHVDLKFKAVFNGQEMEVSVILTARNGKIKRLEFRVRDDHAHELLEHLLK | 1.03
9 | DEEDNTKLKRIMQTGDFETLVHQADENAEFHYGDKTYHGNDQAHKAVENQKKQFDKIEVRSIETKNGHVHVEFRIEVNGRELVLTAFANVHNGRVKNATVQARSEEDRKSLKELDR | 0.044
10 | DEEDNTRLVNLFEHNDWDTIADQADPEAQLVIGDKTYTGREEVKKALSTLVERVDRIEFKRFDVHGNKIHVKMELRFDGRNIELVMRITIKNGRIKSIKIRARDKEVEKILKEMHS | 1.22
11 | DEEDQAKELAERYLEAMENGDEEKNARLADKDVSLTVGDKHVHGREELKKWFRTFVHRVDHVEIQVHDVKVSNGNATIDAEIKYTFNGRDVKKQVLMHAHVKNGELTLKRMTFE | 1.02
12 | DEEDQEKFARDFVRILKDGNPDRARKMFDENARVHVGEKVVHGRDQIRTLVEEIHRRADRINITDFRVHGNSFVFIVVLEKNGETRSFTIVVIVHNGRAQSMHVQSN | 0.96
13 | DEEDQERLEDFLRALKKGDEERLKELVDPNAQFEIGDTTYHGREHFLHTMRRKNEEIRVERDFHTVRAENGHVEMHFHAQENHNGRPRTFTAHATAVIHNGRLKSFVLKVDG | -0.026
14 | DEEDQHVAKEFFSAMLTNDTDKLRRLADPNVRAHIGDKVIHGKEQFVRHVHELVEHQRVQVDRMDLDVDGERVRVEMRHVNEENGQPNDRKAKNSMDIHNGEIKYVTIKTQS | -0.437
15 | DEEDQKELADEMVKVLETGDEDRFSQLLDKDVNINVGDQTYSGSEQAVKWFRELLDNVDSFKFDRVRVNGDQLQIHAILDVNGHDIHVVFQVQFHNGRAQHLNMRYTDDEEKKRFDS | 1.34
16 | DEEDQKHAESFFRNLINNNPEKLKEMADPNAEFEVGDKTLNGTEDLSKWAQKLKDQARMSIQSLTIRVENGRLSATMTFEVEHNGQPDRMKITAHASITNGKITHFMLRLDPKQYKSWVG | 0.493
17 | DEEDQKNFAEQANRALHHGDPRQMATLADKDAEVTVGDREYKGRRDINEAMKDWSDQVDSIEVKSVTVQGNNIVVHFVFVHNGHEHKVVMRITMEGDKATSIHLDEK | 0.336
18 | DEEDQKRKANNVAENLINGNEDEARKYIDKDARVHVGDKTYRGREEARKVWHELRKKVDHLRVEHIDVQGDKVDVQAFFRHNGNQTNIQVHIRMENGHVKSISVDNR | -0.216
19 | DEEDQKRVLQEIVRMIQSGDPSQAKRLADPNATAEVGDKTYHGREKLSKYAKDLHDRVDRVHIQHYTVEGNKARIRVEVSVNGRTRQFEVKVQYHNGHITRLKVDTS | 0.05
20 | DEEDQKTVEEFLHNLEKNNEDQIKRLLDKDVKFIIGDKELHGMEDAVDRLRRHIEEMKVRIESVSNTVSGDKVVVDFTFIEDQNGKPDRKRMKIEFRFHNGKAKEIRIETRQ | 1.38

Source: the NTF2 design screens of Basanta et al. (2020)
